Source: patent US20150086481A1, “DIAGNOSIS AND TREATMENT OF PARKINSON'S DISEASE” (MEMORIAL SLOAN-KETTERING CANCER CENTER, priority 2011, published 2015)
Entries after “also recorded” stand apart in the source; their conditions may differ. Where no end group is shown, it is not given here.

Target: T1, GUCY2C receptor (Mus musculus, UniProt Q3UWA6)
T1 construct: from tissue; host or cells: adult mouse brain (substantia nigra mDA neurons), in vivo after tail vein injection
T1 sequence (Q3UWA6 20-1072): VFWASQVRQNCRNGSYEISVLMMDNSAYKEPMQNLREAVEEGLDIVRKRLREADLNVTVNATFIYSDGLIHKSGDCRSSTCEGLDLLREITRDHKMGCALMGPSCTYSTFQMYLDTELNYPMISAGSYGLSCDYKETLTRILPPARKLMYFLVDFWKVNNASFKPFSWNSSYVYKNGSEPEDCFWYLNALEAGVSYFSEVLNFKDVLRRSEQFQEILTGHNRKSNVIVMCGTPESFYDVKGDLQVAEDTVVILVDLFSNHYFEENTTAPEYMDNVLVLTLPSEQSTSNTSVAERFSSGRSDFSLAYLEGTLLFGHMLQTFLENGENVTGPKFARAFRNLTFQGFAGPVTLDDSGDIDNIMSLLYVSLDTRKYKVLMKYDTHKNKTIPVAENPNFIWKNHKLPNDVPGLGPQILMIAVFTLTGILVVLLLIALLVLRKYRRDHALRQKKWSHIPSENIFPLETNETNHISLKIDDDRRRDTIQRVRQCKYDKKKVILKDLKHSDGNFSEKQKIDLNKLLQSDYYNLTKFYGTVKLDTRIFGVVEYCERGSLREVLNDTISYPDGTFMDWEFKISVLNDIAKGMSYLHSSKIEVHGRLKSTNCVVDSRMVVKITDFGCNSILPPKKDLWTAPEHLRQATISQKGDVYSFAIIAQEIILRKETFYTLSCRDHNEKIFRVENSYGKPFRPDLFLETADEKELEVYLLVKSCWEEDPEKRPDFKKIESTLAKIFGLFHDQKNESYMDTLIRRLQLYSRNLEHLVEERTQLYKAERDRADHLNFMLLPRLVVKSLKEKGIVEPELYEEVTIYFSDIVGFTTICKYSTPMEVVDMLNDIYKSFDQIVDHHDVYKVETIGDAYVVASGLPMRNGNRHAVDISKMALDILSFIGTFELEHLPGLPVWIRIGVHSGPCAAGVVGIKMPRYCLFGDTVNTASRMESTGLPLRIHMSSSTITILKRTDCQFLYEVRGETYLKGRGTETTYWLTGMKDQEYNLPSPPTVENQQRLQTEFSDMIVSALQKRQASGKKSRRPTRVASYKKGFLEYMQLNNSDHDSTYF
Test: Autoradiography of sagittal brain sections after tail vein injection of ^131I-guanylin
Assay type: in vivo
Procedure: The GUCY2C receptor binds to heat stable enterotoxins, to guanylin and to uroguanylin. Guanylin is a 15 amino acid polypeptide (PGTCEICAYAACTGC, SEQ ID NO:1) that contains a tyrosine residue within the middle of its structure (Bryant et al., Life Sci. 86:760-765 (2010)). Guanylin (R&D Systems, Inc., Minneapolis, Minn.) was radiolabeled with ^131Iodine. 1 mCi of ^131I-guanylin was injected in the tail vein of adult mice and animals were sacrificed 10 minutes post-injection without perfusion.

“^131I-guanylin: Guanylin, a 15 amino acid polypeptide GUCY2C ligand (R&D Systems), radiolabeled with ^131Iodine (PGTCEICAYAACTGC; ends and bridges not checked; also: 131I radiolabel; UniProt Q02747 101-115, looked up)” was tested, and the “crossing of the blood brain barrier” value (adult mice, 1 mCi tail vein injection, 10 minutes post-injection) was “crossed the blood brain barrier”, the “localization of radioactive signal in sagittal brain sections (autoradiography)” value (adult mice, 1 mCi tail vein injection, sacrificed 10 minutes post-injection without perfusion) was “localized to the ventricles; also recorded: within the brain parenchyma the only “hot spot” was indeed localized to the GUCY2C expression domain; also recorded: strong emission in the ventricles and SN” and the “binding to GUCY2C expressing mDA neurons in the SN” value (adult mouse brain, after tail vein injection, signal specific to TH-expressing mDA neurons) was “bound to GUCY2C expressing mDA neurons in the SN of the adult brain; also recorded: specific binding to the GUCY2C receptor”.
